Laboratory results published in patent publication US12653899B2, “Multi-targeted, tunable, sustained delivery of payloads to charged avascular tissues” (Massachusetts Institute of Technology, priority 2019, dated 2026).
Entries after “also recorded” stand apart in the source; their conditions may differ.

What was measured:
[1] = test system: human ankle cartilage explants; test: Quantitative uptake of fusion proteins in human ankle cartilage (uptake ratio); format: in vitro ADME; settings: 1 μM in PBS + 1% BSA
Description: Cartilage explants were incubated in 250 μL of 1 μM solutions of different fusion proteins dissolved in 1×PBS+1% BSA for either 36 hours (FIG. 4A) or for 108 hours (FIG. 4B) (4.5 days). A group with free +9 GFP dissolved in 1×PBS+1% BSA (1 μM concentration) was included as a control for each of these two time points. An additional untreated control was included in these experiments. Cartilage explants were incubated in plain 1×PBS+1% BSA to account for and to correct for any autofluorescence effects. At the end of the incubation in the 1×PBS+1% BSA: The explants were transferred to a 10×PBS+1% BSA bath for 48 hours. The purpose of this was to desorb the GFPs taken up by the explants. The amount of GFPs left behind in the […] bath was quantified through fluorescence measurements. The desorption step in 10×PBS+1% BSA was followed by a second desorption step using fresh 10×PBS+1% BSA just to ensure any GFPs left in the explant after the 1st desorption come out. At the end of each desorption step, the fluorescence of the 10×PBS+1% BSA bath was measured. After the 2nd desorption step, the explants were digested in Proteinase K and their fluorescence was measured. The uptake ratio for the 36 hour and 108 hour experiments was calculated as (FIG. 4C): […]
Cartilage explants that had been equilibrated in culture medium post-harvest were transferred to sterile PBS and allowed to equilibrate for 1 hour before the start of the experiments. Sterile PBS solutions containing 1% bovine serum albumin (BSA) were prepared. Following this, 1 μM solutions of (+9GFP), (+9GFP)-(GGGGS)4-(IGF-1) (SEQ ID NO: 7), (+9GFP)-(EAAAK)3-(IGF-1) (SEQ ID NO: 8) and (+9GFP)-(GGGGS)3-(IGF-1) (SEQ ID NO: 9) were prepared. The BSA was included in the PBS to minimize loss of GFPs in the solution caused by non-specific binding to the plasticware. […] In contrast, use of polypropylene with 1% BSA enabled complete recovery of fluorescence.
At the end of the incubation period, cartilage explants were washed with PBS and transferred to a solution of 10×PBS+1% BSA for desorption. At the same time, the fluorescence of the absorption bath was measured using a plate reader (Synergy H1, Biotek Instruments Inc.) (excitation: 485 nm, emission: 528 nm). […] At the end of the desorption in 10×PBS+1% BSA, cartilage explants were weighed, and the fluorescence of the desorption bath was measured. This fluorescence measurement was used with a standard curve and the explant wet weights to calculate the concentration of GFP inside cartilage explants (mol/mg wet weight). The uptake ratio was calculated as the ratio of GFP concentration inside cartilage (mol/mg wet weight) to the final absorption bath concentration (mol/mL).

[2] = test system: human ankle cartilage explants treated with IL-1β; test: IL-1β cytokine challenge model, sGAG biosynthesis rate in human ankle cartilage explants; format: cell-based; settings: continuous 39.2 nM IGF-1; 10 ng/ml mouse IL-1β; FIG. 20

(+9GFP)-(GGGGS)4-(IGF-1): fusion protein of +9 GFP and human IGF-1 with flexible (GGGGS)4 linker, SEQ ID NO: 7
Uptake ratio (Mean) ([1]; 36 hr): 12.7 | Uptake ratio (Mean) ([1]; 108 hr): 18.3

IGF-1: free recombinant human IGF-1 (PeproTech), pro-anabolic growth factor used as the positive control
rescue of the biosynthesis loss caused by IL-1 [2]: rescued; also recorded: could rescue
